According to patent publication US6777536 (Harvard, dated 2004):

B1: mek4-AP soluble receptor fusion protein (mouse Mek4 receptor extracellular domain fused to secreted human placental alkaline phosphatase) (receptor)
chain: ELSPQPSNEVNLLDSKTIQGELGWISYPSHGWEEISGVDEHYTPIRTYQVCNVMDHSQNNWLRTNWVPRNSAQKIYVELKFTLRDCNSIPLVLGTCKETFNLYYMESDDHGVKFREHQFTKIDTIAADESFTQMDLGDRILKLNTEIREVGPVNKKGFYLAFQDVGACVALVSVRVYFKKCPFTVKNLAMFPDTVPMDSQSLVEVRGSCVNNSKEEDPPRMYCSTEGEWLVPIGKCTCNAGYEERGFICQACRPGFYKASDGAAKCAKCPPHSSTQEDGSMNCRCENNYFRAEKDPPSMACARPPSAPRNVISNINETSVILDWSWPLDTGGRKDITFNIICKKCGWNVRQCEPCSPNVRFLPRQLGLTNTTVTVTDLLAHTNYTFEIDAVNGVSELSSPPRQYAAVSITTNQAAPSPVMTIKKDRTSRNSISLSWQEPEHPNGIILDYEVKYYQKQEQETSYTILRARGTNVTISSLKPDTTYVFQIRARTAAGYGTNSRKFEFETSPDSFSISGENSHGSSG
notes: extracellular domain; Used as unpurified conditioned supernatant of stably transfected NIH-3T3 cells; Apparent molecular weight about 150 kD; also called AP-mek4; not shown: secreted human placental alkaline phosphatase, as encoded by vector APtag-1 (Flanagan and Leder 1990)

What was measured:
[1] = target: T1, sek-AP soluble receptor fusion protein (mouse Sek receptor extracellular domain fused to secreted human … (mouse; human, UniProt Q03137 20-547); experiment: Scatchard analysis, COS cells transfected with Elf-1
T1 construct: extracellular domain; Used as unpurified conditioned supernatant of stably transfected NIH-3T3 cells; Apparent molecular weight about 150 kD; also called Ap-sek; not shown: secreted human placental alkaline phosphatase, as encoded by vector APtag-1 (Flanagan and Leder 1990)

[2] = target: B1; experiment: as above
[3] = target: T1, sek-AP soluble receptor fusion protein …; experiment: Scatchard analysis of AP fusion binding to COS cells transfected with Elf-1, colorimetric assay of bound AP activity
Procedure: (§1) (FIGS. 3A and 3D) Cells were treated with saturating amounts of mek4-AP or sek-AP, or with AP, each at 500 OD/hr/ml. Columns show the average of two binding determinations, and error bars indicate the difference between the two. (FIGS. 3B–C and 3E–F) show the Scatchard analyses of binding. (FIGS. 3A–3C illsutrate binding to COS cells transfected with Elf-1, and FIGS. 3D–F show endogenous ligand expression by the BRL-3A cell line).

[4] = target: B1; experiment: as above
Procedure: as §1

[5] = target: T2, cell surface ligand expressed endogenously in the rat liver stromal cell line BRL-3A (rat); experiment: Scatchard analysis of AP fusion binding to BRL-3A cells (endogenous ligand)
T2 construct: PI-PLC sensitive (GPI-linked) cell surface ligand; also called endogenous ligand of BRL-3A cells
Procedure: as §1
A panel of cell lines was tested with mek4-AP and sek-AP for endogenous expression of a cell surface ligand. Briefly, cells were treated with supernatants containing mek4-AP, sek-AP or unfused AP as a control, each at 1,000 OD/hr/ml. The cells were then washed, lysed and assayed colorimetrically for bound AP activity. […] The highest binding was shown by the rat liver stromal cell line BRL-3A, the mink lung fibroblast line Mv1Lu, and two neural crest cell lines, NC7mycblue and NC7EIablue. The BRL-3A cell line was analyzed further. […] The number of binding sites per BRL-3A cell is approximately 50,000. In situ staining was also used to examine the cell surface binding of mek4-AP and sek-AP to BRL-3A cells, and indicated expression of the ligand over the whole cell surface.

T1 sequence (Q03137 other isoform, or with tags, fused parts or gaps): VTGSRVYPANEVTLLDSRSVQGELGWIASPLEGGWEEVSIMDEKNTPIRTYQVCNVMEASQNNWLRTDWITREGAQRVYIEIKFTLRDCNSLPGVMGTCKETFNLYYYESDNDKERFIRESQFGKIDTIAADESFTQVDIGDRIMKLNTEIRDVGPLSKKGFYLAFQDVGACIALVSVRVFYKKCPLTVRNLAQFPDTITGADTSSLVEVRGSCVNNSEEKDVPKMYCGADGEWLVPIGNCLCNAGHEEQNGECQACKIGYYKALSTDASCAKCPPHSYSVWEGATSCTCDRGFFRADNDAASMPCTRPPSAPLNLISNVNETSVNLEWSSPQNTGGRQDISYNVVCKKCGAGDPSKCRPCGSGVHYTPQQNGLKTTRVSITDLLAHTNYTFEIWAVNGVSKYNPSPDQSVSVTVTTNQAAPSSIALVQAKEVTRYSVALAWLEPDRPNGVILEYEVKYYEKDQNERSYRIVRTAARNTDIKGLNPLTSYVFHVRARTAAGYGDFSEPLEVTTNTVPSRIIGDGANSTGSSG

Row | Kd [1] [nM] | Kd [2] [nM] | Kd [3] [nM] | Kd [4] [nM] | Kd [5] [nM] | Binder
1 | ~10 | ~1 | 18 | 1.8 |  | Elf-1 (mouse EPH ligand family-1), expressed on the surface of transiently transfected COS cells (ligand, C-terminal glycosyl phosphatidylinositol anchor (sensitive to PI-PLC); attachment residue not stated, The full-length cDNA (209 amino acids) was transfected; also called muElf-1; cell surface Elf-1) RNEDPARANADRYAVYWNRSNPRFQVSAVGDGGGYTVEVSINDYLDIYCPHYGAPLPPAERMERYILYMVNGEGHASCDHRQRGFKRWECNRPAAPGGPLKFSEKFQLFTPFSLGFEFRPGHEYYYISATPPNLVDRPCLRLKVYVRPTNETLYEAPEPIFTSN
2 |  |  |  |  | 1.3 | B1
